In paper PMC8800120:
“And” between values parts separate entries of the source, which are not always exact repeats. Identical values can stand only once.

Key:
Assay in all cases: EMSA
[1] = test system: phospho-S129 alpha-synuclein (pSyn) (human); settings: EMSA: 11 mM Tris, 1 mM EDTA, 50 mM NaCl, pH 8.0-8.5, 20 min on ice then 30 min RT, mutants/deltaNAC: 4 ul protein in 20 mM Tris-HCl, 200 mM NaCl in 10 ul, 0.5% …
[2] = test system: alpha-synuclein (aSyn) (human); settings: EMSA: 11 mM Tris, 1 mM EDTA, 50 mM NaCl, pH 8.0-8.5, 20 min on ice then 30 min RT, mutants/deltaNAC: 4 ul protein in 20 mM Tris-HCl, 200 mM NaCl in 10 ul, 0.5% …
[3] = test system: aSyn E46K (human); settings: 1.4 uM protein, 1.3 nM DNA; EMSA: 11 mM Tris, 1 mM EDTA, 50 mM NaCl, pH 8.0-8.5, 20 min on ice then 30 min RT; mutants/deltaNAC: 4 ul protein in 20 mM Tris-HCl, 200 mM NaCl in 10 ul, 0.5% …
[4] = test system: deltaNAC aSyn (human); settings: 1.4 uM protein, 1.3 nM DNA; EMSA: 11 mM Tris, 1 mM EDTA, 50 mM NaCl, pH 8.0-8.5, 20 min on ice then 30 min RT; mutants/deltaNAC: 4 ul protein in 20 mM Tris-HCl, 200 mM NaCl in 10 ul, 0.5% …
[5] = test system: gamma-synuclein (gSyn) (human); settings: up to 57 uM protein, 4 nM DNA; EMSA: 11 mM Tris, 1 mM EDTA, 50 mM NaCl, pH 8.0-8.5, 20 min on ice then 30 min RT; mutants/deltaNAC: 4 ul protein in 20 mM Tris-HCl, 200 mM NaCl in 10 ul, 0.5% …
[6] = test system: aSyn A30P (human); settings: 1.4 uM protein, 1.3 nM DNA; EMSA: 11 mM Tris, 1 mM EDTA, 50 mM NaCl, pH 8.0-8.5, 20 min on ice then 30 min RT; mutants/deltaNAC: 4 ul protein in 20 mM Tris-HCl, 200 mM NaCl in 10 ul, 0.5% …
[7] = test system: beta-synuclein (bSyn) (human); settings: up to 57 uM protein, 4 nM DNA; EMSA: 11 mM Tris, 1 mM EDTA, 50 mM NaCl, pH 8.0-8.5, 20 min on ice then 30 min RT; mutants/deltaNAC: 4 ul protein in 20 mM Tris-HCl, 200 mM NaCl in 10 ul, 0.5% …
[8] = test system: aSyn A53T (human); settings: 1.4 uM protein, 1.3 nM DNA; EMSA: 11 mM Tris, 1 mM EDTA, 50 mM NaCl, pH 8.0-8.5, 20 min on ice then 30 min RT; mutants/deltaNAC: 4 ul protein in 20 mM Tris-HCl, 200 mM NaCl in 10 ul, 0.5% …

Substance: 200 bp DNA
- binding signal (fraction shifted) [1]: 0.12
- binding signal (fraction shifted) [2]: 0.74

Substance: 304 bp circular DNA topoisomer (made with HMGB1)
- K half ([2]; covalently closed circle, topoisomer): 1640 nM

Substance: 304 bp circular DNA (made with HMGB1)
- K half ([2]; covalently closed circle): 1610 nM

Substance: 500 bp DNA
- binding signal (fraction shifted) [1]: 1
- binding signal (fraction shifted) [2]: 1

Substance: 125 bp DNA
- binding signal (fraction shifted) [1]: 0.007
- binding signal (fraction shifted) [2]: 0.327

Substance: 300 bp DNA, 67% GC
- binding signal (fraction shifted) ([2]; 57 uM aSyn): 0.693

Substance: 300 bp linear DNA with 4-base 5' overhangs
- binding signal (fraction shifted) [1]: 0.573
- binding signal (fraction shifted) [2]: 0.917

Substance: 300 bp DNA, 56% GC
- binding signal (fraction shifted) ([2]; 57 uM aSyn): 0.81

Substance: 400 bp DNA
- binding signal (fraction shifted) [1]: 0.927
- binding signal (fraction shifted) [2]: 0.947

Substance: 300 bp linear DNA (ends not specified for the experiment)
- binding signal (fraction shifted) [3]: 0.975
- K half ([1]; 0.1 nM DNA): 27.3 µM
- K half ([1]; 6 nM DNA): 32.5 µM
- K half ([2]; 0.1 nM DNA): 273 nM
- K half ([2]; 6 nM DNA): 5850 nM
- binding signal (fraction shifted) ([2]; 1.4 uM protein, 1.3 nM DNA, deltaNAC series): 0.597
- binding signal (fraction shifted) ([2]; 1.4 uM protein, 1.3 nM DNA, point mutant series): 0.55
- binding signal (fraction shifted) ([2]; 57 uM protein, 4 nM DNA, paralog series): 0.199
- binding signal (fraction shifted) [2]: 1 and 0.997
- binding signal (fraction shifted) [4]: 1
- binding signal (fraction shifted) [5]: 0
- binding signal (fraction shifted) [6]: 0.27
- binding signal (fraction shifted) [7]: 0
- binding signal (fraction shifted) [8]: 0.379

Substance: 300 bp DNA (length series)
- binding signal (fraction shifted) [1]: 0.617
- binding signal (fraction shifted) [2]: 0.803

Substance: 300 bp linear DNA, blunt
- binding signal (fraction shifted) [1]: 0.607
- binding signal (fraction shifted) [2]: 0.857
